For the data set the following is noted: Locusta migratoria, pH 7.4, CD, Na2HPO4 KH2PO4 10 mM 2 mM, NaCl 127 mM, reversible: yes, whole UniProt chain shown.

B1: Apolipophorin-3b wild type, P10762 (protein)
chain: MNTLLAVLMLAVAAQARPDAAGHVNIAEAVQQLNHTIVNAAHELHETLGLPTPDEALNLLTEQANAFKTKIAEVTTSLKQEAEKHQGSVAEQLNRFARNLNNSIHDAATSAQPADQLNSLQSALTNVGHQWQTSQPRPSVAQEAWAPVQSALQEAAEKTKEAAANLQNSIQSAVQKPAN
A word on the Tm: it is the temperature at the midpoint of the melting transition. Take B1: for the setting “25 °C, GdnHCl”, the “denaturant midpoint (higher = more stable)” value stood at 0.51 M and the unfolding free energy was 2.05 kcal/mol. The Tm (Thermal) stood at 53 °C.

Source of the values: FireProtDB (doi:10.1021/bi050502v).
